# Values of other authors as cited in publication PMC3317066.
# Columns and labels:
# [1] = target: hemoglobin (Homo sapiens) (UniProt P69905)
# [2] = target: methemoglobin (Homo sapiens) (UniProt P69905)
# [3] = target: falcipain-2 (Plasmodium falciparum) (UniProt Q8I6U4)
# [4] = target: falcipain-3 (Plasmodium falciparum) (UniProt Q8IIL0)
# UniProt Q8IIL0, sequence (Q8IIL0 243-492): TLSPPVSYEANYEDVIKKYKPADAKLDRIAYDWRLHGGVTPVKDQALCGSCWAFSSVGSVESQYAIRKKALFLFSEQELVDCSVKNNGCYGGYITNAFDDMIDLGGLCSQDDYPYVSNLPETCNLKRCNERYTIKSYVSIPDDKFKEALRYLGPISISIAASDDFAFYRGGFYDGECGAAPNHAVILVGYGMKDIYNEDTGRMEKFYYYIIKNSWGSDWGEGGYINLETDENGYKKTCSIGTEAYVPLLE
Substance,Kd [1],Kd [2],Ki [3],Ki [4]
falcipain-2 (from UniProt Q8I6U4),3.3 µM,800 nM,–,–
cystatin (from UniProt P01038),–,–,6.5 nM,100 nM
